The source of these data is US20020132976A1, “Immunogenic peptides derived from prostate-specific antigen (PSA) and uses thereof” (priority 2000, published 2002).

Marks after values point to notes of the source that are not given here.

The target of experiment [1] is T1, HLA-A0201 molecules on T2 cells (Homo sapiens, UniProt P04439, D140Y/D185E/D98H/E176V/E277Q/G131W/G231S/I119V/I121R/I166T/I218V/L300P/L318F/N151K/N90K/P208A/P217A/Q86G/Q94H/R138H/R169H/T345S).
T1 construct: endogenous in cells; host or cells: T2 cell line (Dr. Peter Creswell, Yale University)
The experiment can be described thus: Capacity of PSA derived peptides to bind and stabilize HLA-A0201 molecules on T2 cells (BB7.2 antibody, flow cytometry). The format is cell-based. The following applies: for Fluorescence Index (FI): T2 cells; for HLA-A0201 binding as judged by Fluorescence Index (FI) values: membrane-bound HLA-A0201 molecules on T2 cells. The protocol:
The ability of the PSA derived peptides described in Table 1 to stabilize membrane-bound HLA-A0201 molecule was assessed utilizing the T2 cell line (Dr. Peter Creswell, Yale University). The cell line has been well documented to have a defective TAP (i.e. Transporter for Antigen Processing) transporter function. As a result, the majority of intracellularly generated peptides are not transported into the endoplasmic reticulum and thus are unable to associate with newly synthesized HLA class 1 MHC molecules (i.e. HLA-A0201; Salter, R D and Creswell, P. (1986) EMBO J 5:943). […] The stability of the surface HLA-A0201 molecules can be restored upon interaction with suitable exogenous peptides. The stabilization of the conformation of the class 1 MHC molecules is accompanied by the formation of an immunodominant epitope recognized by a mouse monoclonal antibody (designated BB7.2; American Type Culture Collection (ATCC)). Thus, the detection of this specific epitope is indicative of stable membrane-bound HLA-A0201 molecules loaded with peptide. Subsequent dissociation of peptides from the HLA class 1 MHC molecules results in the loss of BB7.2 monoclonal antibody binding.
T2 cells were propagated in Iscove's complete medium (iscove's medium supplemented with 10% heat-inactivated bovine serum, 120.0 units per ml of penicillin G sodium, 120 μg per ml of streptomycin sulphate, and 0.35 mg per ml of L-glutamine). The ability of PSA peptides (Table 1) to bind and stabilize surface HLA-A0201 molecules on T2 cells was determined utilizing a protocol documented in the art (Deng, Y. (1997) J Immune 158:1507-1515). In essence, 0.5×10^6 T2 cells were incubated with 125.0 μM of the test peptide in 200.0 μl of serum-free culture medium (Iscove's medium supplemented with 120.0 units per ml of penicillin G sodium, 120.0 μg per ml of streptomycin sulphate and 0.35 mg per ml of L-glutamine) overnight at 37° C. Subsequently, cells were washed twice with Iscove's medium (without bovine serum) to remove free PSA peptide. To the cell pellet was added 1.0 ml of complete Iscove's medium (supplemented with fetal bovine serum (10% final)) containing 5.0 μg per ml of brefeldin A (Sigma), 12.5 μg per ml of anisomycin (Sigma) and 5.0 μg per ml of cyclohexamide (Sigma). […] The cells were subsequently incubated 30 min on ice prior to two washes with ice-cold PBA (phosphate buffered saline (pH 7.2) containing 2.0% bovine serum). 100.0 μl of PBA containing 5.0 μg of monoclonal antibody BB7.2 was added to each test sample. The reaction was allowed to proceed on ice for 45 min. Cells were then washed three times with ice-cold PBA. The binding of BB7.2 was detected via the addition of 100.0 μl of PBA containing […] of goat anti-mouse IgG-Fc fluorescein (FITC) conjugate (BETHYL Laboratories Inc.). After a 30 min incubation on ice, cells were twice washed with ice-cold PBA, and twice with ice-cold PBS (pH 7.2). Cells were immediately fixed by the addition of 50.0 μl of 1.0% paraformaldehyde. Samples were analyzed by Flow Cytometry. Results were expressed in units of Fluorescence Index (FI), calculated by the equation: […]
Mean Fluorescence (MF) of experimental sample (peptide treated)−MF of control sample (cells not peptide treated) MF of control sample (cells not peptide treated)
An FI value of 0.5 or greater was deemed to be significant.

The next experiment concerns A2Kb transgenic mouse. The experiment can be described thus: Immunogenicity of PSA peptide in A2Kb transgenic mice (51Cr-release CTL assay). It counts as in vivo. The settings on record: 100.0 μg peptide subcutaneously in IFA with I-Ab-restricted peptide; spleenocytes re-stimulated in vitro; 4 hr 51Cr-release, P815-A2Kb targets; FIG. 1. The protocol:
The A2Kb transgenic mouse was used to assess the immunogenicity of the HLA-A0201 binding PSA peptides. Mice of the B1O background (transgenic for the A2Kb chimeric gene) were purchased from the Scripps Clinic in California, USA. Mice were injected subcutaneously at the base of the tail with a dose of inoculum prepared by emulsifying 100.0 μg of the test peptide and 100.0 μg of an I-A^b-restricted peptide (described in Milich, D. R. et al. (1987) J. Immune 139: 1223-1231) in incomplete Freund's adjuvant (IFA). Spleens of the experimental animals were collected on the 10th or 11th day post immunization. Spleenocytes of the experimental mice were prepared and cultured to enrich for CTLs before being assessed for effector activity. In vitro re-stimulation of the in vivo generated CTLs was performed by co-culturing in a 25 cm^2 tissue culture flask 3×10^7 responder cells (i.e. spleenocytes) with 1.3×10^7 irradiated autologous LPS (lipopolysaccharide)-blasts which had been pulsed with the respective peptide (100.0 μg per 10^8 cells). Cultures were kept in a 37° C., humidified CO2 incubator for 6-7 days before being tested for effector function in a standard 4 hr in vitro ^51Cr-release CTL assay as follows. The responders were harvested from the 6-7 day cultures and washed twice with RPMI-1640 medium (without bovine serum). […] Supernatant aliquots were then removed and counted for radioactivity.

[2] abbreviates: 125.0 μM peptide overnight at 37° C., then 3.0 hr de-stabilization step, FI of 0.5 or greater deemed significant.

For DLHVISNDV [CLP-317], the “Fluorescence Index (FI)” value in experiment [1] (setting [2]) amounted to 0.
With “DLPTQEPAL (CLP315) [CLP-315, PSA derived peptide, preproprotein positions 140-148]”, in experiment [1] (setting [2]), the “Fluorescence Index (FI)” value was 0.
As to “KLQCVDLHV (CLP316) [CLP-316, PSA derived peptide, preproprotein positions 170-178]”, the “Immunogenicity / epitope-specific CTL response” value in the experiment on A2Kb transgenic mouse was “immunogenic and capable of eliciting an epitope-specific CTL response”. In experiment [1] (setting [2]), the “Fluorescence Index (FI)” value was determined as 2.7. In addition, the “HLA-A0201 binding as judged by Fluorescence Index (FI) values” in experiment [1] is reported as “demonstrated HLA-A0201 binding”.
Turning to “MWVPVVFL (CLP313) [CLP-313, PSA derived peptide, preproprotein positions 1-8]”, the “Fluorescence Index (FI)” value in experiment [1] (setting [2]) came out at 1.0. In addition, in experiment [1], the “HLA-A0201 binding as judged by Fluorescence Index (FI) values” is “demonstrated HLA-A0201 binding”.
Turning to PLYDMSLLK (CLP320) [CLP-320], the “Fluorescence Index (FI)” value in experiment [1] (125.0 μM peptide, analysis did not include 3 hr de-stabilization step) was 0.2**. The “HLA-A0201 binding as judged by Fluorescence Index (FI) values” in experiment [1] is recorded as “does not exhibit binding”.
For the sequence VLVHPQWVL [CLP-314], the “Fluorescence Index (FI)” value in experiment [1] (setting [2]) came to 1.1. Also, the “HLA-A0201 binding as judged by Fluorescence Index (FI) values” in experiment [1] is given as “demonstrated HLA-A0201 binding”.
